Measurements published in the Human Domainome abundance scans (Beltran et al. 2025).
± gives the uncertainty stated by the source.

B1: Ankyrin-2, residues 3571 to 3650; numbered along this chain, Q01484 (parent)
chain: ERLAYIADHLGFSWTELARELDFTEEQIHQIRIENPNSLQDQSHALLKYWLERDGKHATDTNLVECLTKINRMDIVHLME

Variants of: B1
Experiment: abundance fitness (aPCA) (normalised: wild type 0, dead -1); higher = more abundant; growth selection in yeast, the domain comes from the species named
Details: Homo sapiens

For ERLAYVADHLGFSWTELARELDFTEEQIHQIRIENPNSLQDQSHALLKYWLERDGKHATDTNLVECLTKINRMDIVHLME [I6V], which abundance fitness is on record?
The abundance fitness was -0.126 ± 0.46.

For ERLAYIADHLGFSWTELARELDFTEEQIHQIRIENPNSLQDQSHALLKYWLERDGKHATDTNLVECLTKINRMDIYHLME [V76Y], which abundance fitness is on record?
Its abundance fitness is -0.196 ± 0.12.

Which abundance fitness does the source give for ERLAYIADHLGFSWTELARELDFTEEQIHQIRIENPNSLQDQSHALLKCWLERDGKHATDTNLVECLTKINRMDIVHLME [Y49C] here?
Its abundance fitness is 0.037 ± 0.11.

With ERLAYIADHLGFSWTELARELDFTEEQIHQIRIENPNSLQDQSHALLKYWLERDGKHATDLNLVECLTKINRMDIVHLME [T61L] as the variant, how does the abundance fitness read?
Its abundance fitness is 0.084 ± 0.076.

Which abundance fitness does the source give for ERLAYIADHLGFSWTELARELDFTEEQIHQIRIENPNSLQWQSHALLKYWLERDGKHATDTNLVECLTKINRMDIVHLME [D41W] here?
The abundance fitness was -0.2 ± 0.12.

Which abundance fitness does the source give for ERLAYIADHLGFSWTELARELDFTEEQIHQIRIENINSLQDQSHALLKYWLERDGKHATDTNLVECLTKINRMDIVHLME [P36I] here?
Its abundance fitness is -0.805 ± 0.44.

Which abundance fitness does the source give for ERLAYIADHLGLSWTELARELDFTEEQIHQIRIENPNSLQDQSHALLKYWLERDGKHATDTNLVECLTKINRMDIVHLME [F12L] here?
The abundance fitness was -0.068 ± 0.072.

Which abundance fitness does the source give for ERLAYIADHLGFSWTELARELDFFEEQIHQIRIENPNSLQDQSHALLKYWLERDGKHATDTNLVECLTKINRMDIVHLME [T24F] here?
The abundance fitness was -0.053 ± 0.1.

With ERLAYIADHLGFSWTELARELDFTEEQIHLIRIENPNSLQDQSHALLKYWLERDGKHATDTNLVECLTKINRMDIVHLME [Q30L] as the variant, how does the abundance fitness read?
The abundance fitness was -0.052 ± 0.058.

For ERLAYIADHLGFSWTMLARELDFTEEQIHQIRIENPNSLQDQSHALLKYWLERDGKHATDTNLVECLTKINRMDIVHLME [E16M], which abundance fitness is on record?
Its abundance fitness is -0.056 ± 0.11.

With ERLAYIADHLGFSWTELARELDFTEEQIHQIRIENPNSLQDQSHALHKYWLERDGKHATDTNLVECLTKINRMDIVHLME [L47H] as the variant, how does the abundance fitness read?
The abundance fitness was -0.592 ± 0.3.

With ERLAYIADHLGFSWTELARELDFTEEQIHQIRIENPNSLQDQSHALLKYWLERDGKHATDTNSVECLTKINRMDIVHLME [L63S] as the variant, how does the abundance fitness read?
Its abundance fitness is -0.634 ± 0.081.

Which abundance fitness does the source give for ERQAYIADHLGFSWTELARELDFTEEQIHQIRIENPNSLQDQSHALLKYWLERDGKHATDTNLVECLTKINRMDIVHLME [L3Q] here?
Its abundance fitness is -0.031 ± 0.076.

For ERLAYIADHLGFSWTELARELDFTEEQIHQIRIENPNSLQDQSHALLKYWLERDGKHWTDTNLVECLTKINRMDIVHLME [A58W], which abundance fitness is on record?
Its abundance fitness is -0.167 ± 0.082.

For ERLAYIADHLGFSWTELARELDFTEEQIHQIRIENPNSLQDQSHALLKYWLSRDGKHATDTNLVECLTKINRMDIVHLME [E52S], which abundance fitness is on record?
The abundance fitness was -0.057 ± 0.062.

Which abundance fitness does the source give for ERLAYIADHLGFSWTELARELDFTEEQIHQIRIENPNSLQDQSHALLKYWLERWGKHATDTNLVECLTKINRMDIVHLME [D54W] here?
Its abundance fitness is -0.041 ± 0.1.

Which abundance fitness does the source give for ERLAYIADHLGFSWTELARELDFTEEQIHQIRIENPNSLQDQSHALLKYWLERIGKHATDTNLVECLTKINRMDIVHLME [D54I] here?
Its abundance fitness is -0.354 ± 0.13.

For ERLAYIADHLGFSWTELARELDFTEEQIHQIRIENPNSLQDQSHALLKYWLERLGKHATDTNLVECLTKINRMDIVHLME [D54L], which abundance fitness is on record?
Its abundance fitness is -0.035 ± 0.058.

Which abundance fitness does the source give for ERLAYIGDHLGFSWTELARELDFTEEQIHQIRIENPNSLQDQSHALLKYWLERDGKHATDTNLVECLTKINRMDIVHLME [A7G] here?
The abundance fitness was 0.12 ± 0.28.

Which abundance fitness does the source give for ERLAYIADHLGFSWTELAGELDFTEEQIHQIRIENPNSLQDQSHALLKYWLERDGKHATDTNLVECLTKINRMDIVHLME [R19G] here?
The abundance fitness was -0.004 ± 0.057.

For ERLAYIADHLGFSWTELARELDFTEEQQHQIRIENPNSLQDQSHALLKYWLERDGKHATDTNLVECLTKINRMDIVHLME [I28Q], which abundance fitness is on record?
Its abundance fitness is -0.179 ± 0.093.

With ERLAYIADHLGFSWTELARELDFTEEQIHQIRIENPNSLQDQSHALLKYWLERDGKHATGTNLVECLTKINRMDIVHLME [D60G] as the variant, how does the abundance fitness read?
Its abundance fitness is -0.115 ± 0.044.

Which abundance fitness does the source give for ERLAYIADHLGFSWTELARELDFTEEQIHQIRIENPNSLQDISHALLKYWLERDGKHATDTNLVECLTKINRMDIVHLME [Q42I] here?
Its abundance fitness is -0.33 ± 0.19.

With ERLAYIADHLGFSWTELARELDFTEEQIHQIRIENPDSLQDQSHALLKYWLERDGKHATDTNLVECLTKINRMDIVHLME [N37D] as the variant, how does the abundance fitness read?
The abundance fitness was -0.015 ± 0.21.

Which abundance fitness does the source give for ERLAYIADHLGFSWWELARELDFTEEQIHQIRIENPNSLQDQSHALLKYWLERDGKHATDTNLVECLTKINRMDIVHLME [T15W] here?
Its abundance fitness is -0.058 ± 0.077.

Which abundance fitness does the source give for ERLAYIADHLGFSWTELARELDFTEEQIHQIRIENPNMLQDQSHALLKYWLERDGKHATDTNLVECLTKINRMDIVHLME [S38M] here?
The abundance fitness was -0.059 ± 0.079.

With ERLAYIADHLGFSWTELARELDFTEEQIHQIRIENPNSLQDQSHALLKYWLERDGKHATDTNLVECLTKINRMPIVHLME [D74P] as the variant, how does the abundance fitness read?
Its abundance fitness is -0.471 ± 0.058.

For ERLAYIADHLFFSWTELARELDFTEEQIHQIRIENPNSLQDQSHALLKYWLERDGKHATDTNLVECLTKINRMDIVHLME [G11F], which abundance fitness is on record?
The abundance fitness was -0.039 ± 0.12.

With EPLAYIADHLGFSWTELARELDFTEEQIHQIRIENPNSLQDQSHALLKYWLERDGKHATDTNLVECLTKINRMDIVHLME [R2P] as the variant, how does the abundance fitness read?
Its abundance fitness is -0.454 ± 0.39.

For ERLAYIADHLGFSWTELARELDFTEEQIHQIRIENPNSLQDQSHALLKYWLERDWKHATDTNLVECLTKINRMDIVHLME [G55W], which abundance fitness is on record?
The abundance fitness was -0.112 ± 0.063.

With ERLAYIADHLGFSWTELARELAFTEEQIHQIRIENPNSLQDQSHALLKYWLERDGKHATDTNLVECLTKINRMDIVHLME [D22A] as the variant, how does the abundance fitness read?
The abundance fitness was -0.05 ± 0.066.

With ERLAYIADHLGFSWTELARELDFTEEQIHQIRIENPNSLQDQSHALLKYWLERDGKHATDTNLVECLTKIFRMDIVHLME [N71F] as the variant, how does the abundance fitness read?
The abundance fitness was -0.343 ± 0.15.

Which abundance fitness does the source give for ERLAYIADHLGFSWTELARCLDFTEEQIHQIRIENPNSLQDQSHALLKYWLERDGKHATDTNLVECLTKINRMDIVHLME [E20C] here?
Its abundance fitness is -0.156 ± 0.25.

For ERLAYIADHLGFSWTELARYLDFTEEQIHQIRIENPNSLQDQSHALLKYWLERDGKHATDTNLVECLTKINRMDIVHLME [E20Y], which abundance fitness is on record?
The abundance fitness was -0.1 ± 0.14.

With ERLAYIADHLGFSWTELARELDFTEFQIHQIRIENPNSLQDQSHALLKYWLERDGKHATDTNLVECLTKINRMDIVHLME [E26F] as the variant, how does the abundance fitness read?
The abundance fitness was -0.282 ± 0.17.
